These results are taken from paper PMC3340011 (Biophysical Chemistry, 2011).

What all share (assay): fluorescence polarisation
For orientation: Fluorescence polarisation rises when a labelled molecule tumbles more slowly, as on binding a larger partner.

Experiment [1] concerns the target T1, Full-length mammalian calmodulin, residues 1–148 (rat) (rat, UniProt P0DP29 1-149).
Experiment [2] concerns the target N-domain fragment of calmodulin, residues 1–80 (rat, UniProt P0DP29 2-81).
The target of experiment [3] is C-domain fragment of calmodulin, residues 76–148 (rat, UniProt P0DP29 77-149).
The target of experiment [4] is T1, Full-length mammalian calmodulin, …. The source holds these as a separate data set.

Like-named read-outs stand apart in the source and are kept apart here. Where no end group is shown, it is not given here.

Usually Kd stands for the free concentration of one partner at which half of the binding sites on the other are occupied at equilibrium, for simple one-to-one binding. Higher therefore signals a looser complex. {5,6‑carboxyfluorescein}-FNATLFALVRTALRIKTEGNLE [Fl-A_(1588): A_(1588) (residues 1588–1609 of Cav1.2 CTT) fluoresceinated at the N-terminus] displayed an equilibrium dissociation constant (Kd) in experiment [1] of at most 2 nM.

In the case of {5,6‑carboxyfluorescein}-ATFLIQEYFRKFKKRKEQGLVGKPSQ [Fl-IQ′_(1650): IQ′_(1650) (residues 1650–1675 of Cav1.2 CTT) fluoresceinated at the N-terminus], the Kd in experiment [1] is at most 2 nM; in experiment [2], 1100 ± 970 nM; in experiment [3], at most 10 nM; in experiment [4], 2500 ± 180 nM.

Regarding {5,6‑carboxyfluorescein}-ELRAIIKKIWKRTSMKLLDQVV [Fl-C_(1614): C_(1614) (residues 1614–1635 of Cav1.2 CTT) fluoresceinated at the N-terminus], the Kd was at most 2 nM in experiment [1], at most 70 nM in experiment [2], at most 70 nM in experiment [3] and 4100 ± 370 nM in experiment [4].
